The target of the test is T1, endogenous Fzd7 on activated mouse satellite cells (mouse, UniProt Q61090 33-572).
T1 construct: whole, on cells; also called Frizzled7; Wnt7a receptor Fzd7
Briefly: in-situ proximity ligation assay (PLA) on activated satellite cells on cultured myofibers; signal abolished by siSdc4. As to the method:
A) Co-IP of Sdc4 with the Wnt7a receptor Fzd7 from satellite cell derived primary myoblasts overexpressing (OE) Fzd7-Flag and Sdc4-YFP. Co-IP was performed with an anti-YFP antibody or with an IgG control. B) Proximity ligation assay (PLA) of Sdc4 and Fzd7 in activated satellite cells after 42 hours of fiber culture. […] Scale bar=5 μm. C) Proximity ligation assay (PLA) of Sdc4 and FN in activated satellite cells after 42 hours of fiber culture. […] Scale bar=5 μm. D) Co-IP of Fzd7 with FN from satellite cell derived primary myoblasts overexpressing (OE) Fzd7-Flag and FN. Co-IP was performed with an anti-YFP antibody. siRNA knockdown of endogenous Sdc4 (siSdc4) prevented Co-IP of FN with Fzd7 when compared to siSCR. E) Co-IP of Sdc4 with Wnt7a from satellite cell derived primary myoblasts that overexpress (OE) Sdc4-YFP and Wnt7a-HA. Co-IP was performed with an anti-flag antibody. siRNA knockdown of endogenous Fzd7 prevented Co-IP of Sdc4 with Wnt7a. F) Rac1 activation assay. Total Rac1 is shown as a loading control. Densitometric quantification represents average grey values±SEM after subtraction of the background and normalization to total Rac1. The average grey value obtained for empty vector (EV) was set to 100%, n=3, p values are ***p<0.001, **p<0.01, *p<0.05.
Mouse Fzd7 immunoprecipitated with mouse Sdc4 in mammalian myogenic cells. […]

Data on one molecule can be found in patent US20150111822A1 (OTTAWA HOSPITAL RESEARCH INSTITUTE, published 2015).

B1: endogenous Syndecan 4 (Sdc4) on mouse satellite cells and primary myoblasts (receptor, UniProt O35988 24-198, looked up)
chain: ESIRETEVIDPQDLLEGRYFSGALPDDEDAGGSDDFELSGSGDLDDTEEPRPFPEVIEPLVPLDNHIPENAQPGIRVPSEPKELEENEVIPKRAPSDVGDDMSNKVSMSSTAQGSNIFERTEVLAALIVGGVVGILFAVFLILLLVYRMKKKDEGSYDLGKKPIYKKAPTNEFYA
notes: whole, on cells; also called FN receptor Sdc4
With B1, the binding result is on record as “binds”.
